Six molecules from publication PMC4702141 (Scientific Reports, 2016) can be followed below.

To fix the notation:
B2: BMPRIA-Fc (Fc fusion)
chain: QNLDSMLHGTGMKSDSDQKKSENGVTLAPEDTLPFLKCYCSGHCPDDAINNTCITNGHCFAIIEEDDQGETTLASGCMKYEGSDFQCKDSPKAQLRRTIECCRTNLCNQYLQPTLPPVVIGPFFDGSIR
modifications: Extracellular domain; C-terminal human IgG Fc (left out) makes a disulfide-linked dimer. The protein was bought from R&D Systems with species and limits not given; human is taken as the likeliest …
B4: recombinant BMPRIB-Fc (Fc fusion, mouse, UniProt P36898 14-126, looked up)
chain: KKEDGESTAPTPRPKILRCKCHHHCPEDSVNNICSTDGYCFTMIEEDDSGMPVVTSGCLGLEGSDFQCRDTPIPHQRRSIECCTERNECNKDLHPTLPPLKDRDFVDGPIHHK
notes: BMPRIB (ALK6), mouse, extracellular domain; cDNA fragment NM_007560.3, 4-378 bp, from FANTOM cDNA clones (RIKEN); also called ALK6; source: 293F cells, transfected, purified from culture supernatant (Protein A columns)
B5: mouse GDF-6 (ligand, UniProt P43028 335-454, looked up)
chain: TAFASRHGKRHGKKSRLRCSRKPLHVNFKELGWDDWIIAPLEYEAYHCEGVCDFPLRSHLEPTNHAIIQTLMNSMDPGSTPPSCCVPTKLTPISILYIDAGNNVVYKQYEDMVVESCGCR
notes: Growth differentiation factor 6, mouse, recombinant; source: bought: R&D Systems
B6: mouse GDF-5 (ligand, UniProt P43027 376-495, looked up)
chain: APLANRQGKRPSKNLKARCSRKALHVNFKDMGWDDWIIAPLEYEAFHCEGLCEFPLRSHLEPTNHAVIQTLMNSMDPESTPPTCCVPTRLSPISILFIDSANNVVYKQYEDMVVESCGCR
notes: Growth differentiation factor 5, mouse, recombinant; source: bought: R&D Systems

Holding throughout (experiment): SPR; BMPRIA-Fc or BMPRIB-Fc captured with an anti-human Fc IgG capture kit; ligands injected at 25 °C, 30 μL/min; HBS-EP (+) running buffer; single-cycle kinetics, 1:1 binding model, Biacore T100; average of 2 or 3 independent analyses
On the technique in general: Surface plasmon resonance follows binding to a sensor surface in real time, without labels.

Assay [1] addresses T1, BMPRIA-Fc, P36895.
T1 chain: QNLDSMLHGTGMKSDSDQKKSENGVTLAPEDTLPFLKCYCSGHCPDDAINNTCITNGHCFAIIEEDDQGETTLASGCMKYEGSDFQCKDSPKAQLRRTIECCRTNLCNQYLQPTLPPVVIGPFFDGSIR
Conditions: remark: other sources report otherwise.

Assay [2] addresses T2, mouse GDF-7 (mouse, UniProt P43029 316-461).
T2 construct: Growth differentiation factor 7, mouse, recombinant; source: bought: R&D Systems
T2 sequence (looked up): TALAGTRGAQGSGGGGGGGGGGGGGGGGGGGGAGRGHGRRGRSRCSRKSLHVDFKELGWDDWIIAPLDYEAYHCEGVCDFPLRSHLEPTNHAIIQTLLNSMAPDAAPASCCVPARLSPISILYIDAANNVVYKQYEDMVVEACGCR
Conditions: both partners purified.

In assay [3] the target is T3, human BMP6 (human, UniProt P22004 375-513).
T3 construct: Bone morphogenetic protein 6, human, recombinant; source: bought: R&D Systems
T3 sequence (looked up): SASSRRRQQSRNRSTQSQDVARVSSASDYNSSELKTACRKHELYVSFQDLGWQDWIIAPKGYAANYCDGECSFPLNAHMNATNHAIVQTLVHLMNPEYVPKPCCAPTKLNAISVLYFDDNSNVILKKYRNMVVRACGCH
Conditions: both partners purified.

Assay [4] concerns the target B4. Conditions: both partners purified.
Assay [5] addresses B6. Conditions: both partners purified.
Assay [6] deals with T4, human BMP2 (human, UniProt P12643 283-396).
T4 construct: Bone morphogenetic protein 2, human, recombinant; source: bought: R&D Systems
T4 sequence (P12643 283-396): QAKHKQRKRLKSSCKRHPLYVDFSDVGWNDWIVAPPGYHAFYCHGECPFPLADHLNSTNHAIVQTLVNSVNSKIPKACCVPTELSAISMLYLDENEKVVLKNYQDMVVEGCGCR
Conditions: both partners purified.

Assay [7] deals with B5. Conditions: both partners purified.
Assay [8] deals with T5, human BMP7 (human, UniProt P18075 293-431).
T5 construct: Bone morphogenetic protein 7, human, recombinant; source: bought: R&D Systems
T5 sequence (looked up): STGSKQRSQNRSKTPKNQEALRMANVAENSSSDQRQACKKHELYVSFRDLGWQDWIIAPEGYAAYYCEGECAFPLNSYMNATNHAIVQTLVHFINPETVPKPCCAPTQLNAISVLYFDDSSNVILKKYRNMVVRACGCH
Conditions: both partners purified.

For assay [9], the target named is T6, human BMP4 (human, UniProt P12644 293-408).
T6 construct: Bone morphogenetic protein 4, human, recombinant; source: bought: R&D Systems
T6 sequence (looked up): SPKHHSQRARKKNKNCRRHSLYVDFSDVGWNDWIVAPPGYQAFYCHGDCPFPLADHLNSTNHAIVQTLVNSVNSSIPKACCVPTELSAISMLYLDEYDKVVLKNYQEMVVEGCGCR
Conditions: both partners purified.

For assay [10], the target named is B2. Conditions: both partners purified.

B1: human BMP7, P18075 293-431 (ligand)
chain: STGSKQRSQNRSKTPKNQEALRMANVAENSSSDQRQACKKHELYVSFRDLGWQDWIIAPEGYAAYYCEGECAFPLNSYMNATNHAIVQTLVHFINPETVPKPCCAPTQLNAISVLYFDDSSNVILKKYRNMVVRACGCH
modifications: here or on the partner: Extracellular domain; C-terminal human IgG Fc (left out) makes a disulfide-linked dimer. The protein was bought from R&D Systems with species and limits not given; human is taken as the likeliest pr
As for B1, the Kd in [1] was found to be 1.95 nM.
For the molecule B2, the Kd in assay [2] was found to be 0.432 nM; in assay [3] it was 0.0792 nM.

B3: human BMP10 (ligand, UniProt O95393 317-424, looked up)
chain: NAKGNYCKRTPLYIDFKEIGWDSWIIAPPGYEAYECRGVCNYPLAEHLTPTKHAIIQALVHLKNSQKASKACCVPTKLEPISILYLDKGVVTYKFKYEGMAVSECGCR
notes: Bone morphogenetic protein 10, human, recombinant; source: bought: R&D Systems
Consider B3, for which the Kd in [4] was determined as 0.00945 nM.
On to B4, for which the Kd in assay [5] stood at 0.129 nM; in assay [2], 0.209 nM; in [3] it was 0.00035 nM; in [6], 0.00248 nM; in assay [7], 0.159 nM; in [8], 0.268 nM. In [9], the Kd stood at 0.221 nM.
In assay [10], B5 returned a Kd of 0.48 nM.
B6 showed a Kd in assay [10] of 1.63 nM.

As a reminder, the Kd is the free concentration of one partner at which half of the binding sites on the other are occupied at equilibrium, for simple one-to-one binding.
